Measurements reported in patent US20230416345A1, “NEW TYPE II COLLAGEN BINDING PROTEINS” (Navigo Proteins GmbH, priority 2020, published 2023).

Experiment: Soluble expression in Escherichia coli BL21(DE3)
Assay type: physicochemical
Details: expression in E. coli BL21(DE3)
Procedure: Variants with affinity tag were expressed in Escherichia coli BL21(DE3) using a low copy plasmid system under regulation of a T7 promoter. Proteins were produced in soluble form after induction by lactose included in the medium (autoinduction medium). BL21 (DE3) competent cells were transformed with the expression plasmid, spread onto selective agar plates (kanamycin) and incubated overnight at 37° C. Precultures were inoculated from single colony in 3 ml 2×YT medium supplemented with 50 μg/ml kanamycin and cultured for 6 hours at 37° C. at 200 rpm in a conventional orbital shaker in culture tubes. […] Cultures were transferred to an orbital shaker and incubated at 30° C. and 200 rpm. Recombinant protein expression was induced by metabolizing glucose and subsequently allowing lactose to enter the cells. Cells were grown overnight for approx. 17 hours to reach a final OD600 of about 2-4. Before the harvest, the OD600 was measured, samples adjusted to 0.6/OD600 were withdrawn, pelleted and frozen at −20° C. To collect biomass cells were centrifuged at 12000×g for 15 min at 22° C. Pellets were weighed (wet weight). Cells were stored at −20° C. before processing.
Proteins with affinity tag were purified by affinity chromatography and size exclusion. After affinity chromatography purification using Strep-Tactin Superflow high capacity cartridges (IBA Lifesciences) a size exclusion chromatography (SEC) was performed using an Äkta system and a Superdex™ 200 HiLoad 16/600 column (Cytiva). Fused variants with Aflibercept were purified via MabSelect SuRe (Cytiva) affinity chromatography followed by a size exclusion chromatography (SEC) using an Äkta system and a Superdex™ 200 HiLoad 16/600 column (Cytiva). All chromatography processing steps were carried out on AKTA systems using matrices from Cytiva. Homogenous species of all purified ligands were obtained; no aggregation was detected. Following SOS-PAGE analysis positive fractions were pooled and their protein concentrations were measured. Further analysis included SOS-PAGE, SE-HPLC and RP-HPLC. Protein concentrations were determined by absorbance measurement at 280 nm using the molar absorbent coefficient. Reversed phase chromatography (RP-HPLC) was performed using a Dionex HPLC system and a PLRP-S (5 μm, 300 Å) column (Agilent). Analytic size exclusion chromatography (SE-HPLC) was performed using a Dionex HPLC system and a Superdex200 increase 5/150 GL (Cytiva). Binding of Collagen II was evaluated by SPR measurements using a Biacore 3000 system. Purified Collagen II was obtained from Chondrex.inc and VEGF-165 was obtained from Millipore. Targets were immobilized on a CM5-Sensor via NHS/EDC chemistry (immobilization level ˜1000 RU). Binding molecules were injected at different concentration and affinity was calculated by langmuir 1:1 binding model.

B1: CID 212000: dimer of SEQ ID NO: 2 (dimer with linker between the monomers) (protein)
chain: IAAKFDEAQSAADSEILHLPNLTEQQRHYFRRWLSDDPSVSTHILTQAQHLNDDQAPKGGGGSGGGGSGGGGSGGGGSIAAKFDEAQSAADSEILHLPNLTEQQRHYFRRWLSDDPSVSTHILTQAQHLNDDQAPKSAWSHPQFEK
modifications: Col2 binding protein (dimer of 211261) (CID212000)
  Solubility Soluble expression: 100%
